Experimental data taken from the RNAGym collection of RNA variant scans (doi:10.1073/pnas.2313332121).

B1: TPR t1 (parent)
chain: GACCAAUCUGCCCUCAGAGCUCGAGAACAUCUUCGGAUGCAGAGGAGGCAGGCUUCGGUGGCGCGAUAGCGCCAACGUCCUCAACCUCCAAUGCAUCCCACCACAUGAUGAUGCCUGAAGAGCCUUGGUUUUUUG

Variants of: B1
Test: polymerase ribozyme fitness, log enrichment relative to wild type (log ratio); higher = more active; in vitro selection for triplet polymerase activity
Method in brief: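 Genotype fitness is the logarithm of its enrichment divided by wild-type enrichment, using inverse-variance-weighted averages of replicates. That logarithm is base 2. Enrichment was measured by Illumina sequencing of input and output libraries from one triplicate in vitro selection round, with frozen incubation at −7 °C, on PCR-built, transcribed mutant libraries of each subunit of a heterodimeric triplet polymerase ribozyme, retaining genotypes with ≥10 input reads and ≥1 read per output.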

Row | Variant | polymerase ribozyme fitness (log ratio)
1 | C49A A118G | -0.216
2 | C49A C53A C79A C85U A111C | -2.83
3 | C49A C56A C64U U130C | -0.336
4 | C49A C56A U59A C73G C114A G128C | -8.01
5 | C49A C56U G120U | 0.2
6 | C49A C70U C80A U116C | -7.47
7 | C49A C70U C82A C104U A105U C123G G135U | -5.46
8 | C49A C72A C73U C97G C123A | -5.81
9 | C49A C72G C89G G113U | -5.04
10 | C49A C72U C97G G128C | -6.74
11 | C49A C72U G77U C115A | -1.36
12 | C49A C73A C89U A105U | -3.83
13 | C49A C73U G120U | -0.216
14 | C49A C79U C114U G120U | -4.69
15 | C49A C86A U129G | -1.96
16 | C49A C86G C101A A118U | -1.56
17 | C49A C88A G113U A119U G128U | -6.41
18 | C49A C88G G120C | 0.68
19 | C49A C94A A103C | -5.92
20 | C49A C94U U116A | -3.07
21 | C49A C101G | -2.23

Row | Variant | polymerase ribozyme fitness (log ratio)
22 | C49A C115G | -1.85
23 | C49A C123U | 1.14
24 | C49A G52A G57A U78A | -1.73
25 | C49A G60A G135C | -0.655
26 | C49A G69U | 0.034
27 | C49A G71A C98G A100C | -7.02
28 | C49A G71A G77C | -1.63
29 | C49A G77A C82A U92C G113U C114U | -2.49
30 | C49A G77A U106C C114A | -2.9
31 | C49A G113C G120U | -4.69
32 | C49A G135U | -1.83
33 | C49A U55C | -1.24
34 | C49A U55C G61C C104U | -2.02
35 | C49A U81C U129G | -3.78
36 | C49A U96G | -0.658
37 | C49G A83G C88A C102U G120C | -5.33
38 | C49G A90C | -3.22
39 | C49G A90C U126C | -3.39
40 | C49G A90U G117A | -3.8
41 | C49G C56G | -2.98
42 | C49G C56U | -0.51

Row | Variant | polymerase ribozyme fitness (log ratio)
43 | C49G C62A A100U | -2.34
44 | C49G C62G | -3.46
45 | C49G C70A | -2.2
46 | C49G C70G | -4.79
47 | C49G C70U U129A | -2.63
48 | C49G C72U | -0.921
49 | C49G C82G A118U | -0.627
50 | C49G C85G U116G | -3.63
51 | C49G C98G | -4.99
52 | C49G C99U G127U | -4.66
53 | C49G C101A C124U | 0.417
54 | C49G C115A | -1.51
55 | C49G C115G | -2.98
56 | C49G C115U | -1.48
57 | C49G G51C A119U U133C | -3.18
58 | C49G G51U | -3.2
59 | C49G G57U | -0.441
60 | C49G G57U C82G U96G | -2.49
61 | C49G G60A A75U G93U | -3.65
62 | C49G G60C | -1.97
63 | C49G G61C | -2.12

Row | Variant | polymerase ribozyme fitness (log ratio)
64 | C49G G63A U78A C99A | -8.17
65 | C49G G63U U92C | -3.98
66 | C49G G69U G117A | -1.13
67 | C49G G77U | -1.25
68 | C49G G120U | 0.305
69 | C49G G120U U132A | -0.00759
70 | C49G U55C C98U | -2.01
71 | C49G U78G U112A | -0.0739
72 | C49G U96A U112A | -0.269
73 | C49U A50U A95G U96A A111G | -7.1
74 | C49U A50U G51A | -2.62
75 | C49U A68G A84C U131A | -4.91
76 | C49U A74C | -0.435
77 | C49U A90G C124A | 1.48
78 | C49U A91C C123A | -1.62
79 | C49U A103C U112C | -3.22
80 | C49U A119U C123U | 0.0952
81 | C49U A121C | 1.39
82 | C49U C53U C72G C114U | -3.44
83 | C49U C53U G60A G122A U133G | -1.32
